Experimental findings from publication PMC7108872 (Nature structural & molecular biology, 2019) are described below.

This assay deals with bovine β-arrestin 1 (1–393) (bovine, UniProt P17870). The assay is described as follows: cryo-EM structure.
Chain of bovine β-arrestin 1 (1–393) (P17870 1-393): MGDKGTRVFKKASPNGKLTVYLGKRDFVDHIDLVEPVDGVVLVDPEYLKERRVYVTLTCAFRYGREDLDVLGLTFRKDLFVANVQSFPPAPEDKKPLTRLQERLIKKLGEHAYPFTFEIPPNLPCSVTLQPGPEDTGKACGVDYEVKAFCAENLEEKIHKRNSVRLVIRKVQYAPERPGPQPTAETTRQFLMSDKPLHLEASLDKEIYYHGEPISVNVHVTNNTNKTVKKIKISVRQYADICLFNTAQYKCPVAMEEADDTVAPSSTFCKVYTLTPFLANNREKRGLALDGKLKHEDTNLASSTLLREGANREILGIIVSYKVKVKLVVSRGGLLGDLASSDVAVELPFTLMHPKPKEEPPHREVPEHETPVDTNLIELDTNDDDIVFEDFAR

B1: Nanobody 32 (VHH)
VHH: QVQLQESGGGLVQAGGSLRLSCVVSGFFFDTVTMAWYRRAPGKHRELVASATAGGTTTYADSVKDRFTISRDNAKNTVYLQMNSLKPEDTAVYYCNTFVRSLSWGQGTQVTVSS
B1: the binding result is “binds”.
